These results are taken from patent publication US20160271244A1.

“And” between values parts separate entries of the source, which are not always exact repeats. Equal values may be shown once.

4E10 (antibody): in the experiment with JRFL APA DEG, the Kd (in general, the constant that tells how readily two partners part at equilibrium) is 140 nM and 150 nM and 180 nM; the off-rate (koff) (commonly the first-order rate constant of dissociation) turned out to be 0.001 s⁻¹; the association rate constant (kon) (commonly the rate constant with which the complex forms) was 6800 M⁻¹ s⁻¹ and 6600 M⁻¹ s⁻¹ and 5500 M⁻¹ s⁻¹. In the experiment with JRFL APA, this substance displayed a Kd of 1380 nM, an off-rate constant (koff) of 0.001 s⁻¹ and a kon of 720 M⁻¹ s⁻¹.
